In patent publication US20090192084A1 (CALIFORNIA INSTITUTE OF TECHNOLOGY, published 2009):

Tests used:
endogenous p97 = target: T1, endogenous p97 (human, UniProt P55072 2-806); assay: Flag co-IP, 293 cells, MudPIT MS
T1 construct: also called VCP
Method: For immunoprecipitation experiments, the cells were lysed in buffer A (50 mM HEPES/KOH, pH 7.5; 5 mM Mg(OAc)₂; 70 mM KOAc; 0.2% Triton X-100; 10% glycerol; 0.2 mM EDTA; protease inhibitors) and incubated with anti-Flag agarose beads (Sigma) or anti-Myc sepharose beads (Covance).
Mass spectrometrical sample analysis was performed as described previously (Graumann et al., 2004) using a high-pressure liquid chromatography pump (Agilent) in line to a LCQ DecaXP electrospray ion trap mass spectrometer (ThermoFinnigan). In brief, 2-4 mg of protein extract were incubated with anti-Flag or anti-Myc beads and the immunoprecipitated proteins were eluted with saturated urea. The eluates were then proteolitically digested using sequentially endoproteinase Lys-C and trypsin. The resulting peptide mixtures were pressure-loaded onto triphasic microcapillary columns and sample separation was achieved using a chromatography program consisting of six salt steps, each followed by an organic gradient. The eluting peptides were electrosprayed into the mass spectrometer and the column eluate was continuously analyzed. One full-range mass scan ([…]) was followed by three data-dependent tandem mass spectrometry (MS/MS) spectra. Sequence database matching was performed against the IPI human database (Kersey et al., 2004) version 3.15.1 using Sequest (Eng et al., 1994) and the results were filtered with DTASelect (Tabb et al., 2002), using the parameters indicated in Graumann et al. (2004).

[1] = target: T2, Ubiquitin conjugation factor E4 B, UBE4B (Ufd2ortholog) (human, UniProt O95155 1-1302); assay: co-IP, MudPIT MS
T2 sequence (looked up): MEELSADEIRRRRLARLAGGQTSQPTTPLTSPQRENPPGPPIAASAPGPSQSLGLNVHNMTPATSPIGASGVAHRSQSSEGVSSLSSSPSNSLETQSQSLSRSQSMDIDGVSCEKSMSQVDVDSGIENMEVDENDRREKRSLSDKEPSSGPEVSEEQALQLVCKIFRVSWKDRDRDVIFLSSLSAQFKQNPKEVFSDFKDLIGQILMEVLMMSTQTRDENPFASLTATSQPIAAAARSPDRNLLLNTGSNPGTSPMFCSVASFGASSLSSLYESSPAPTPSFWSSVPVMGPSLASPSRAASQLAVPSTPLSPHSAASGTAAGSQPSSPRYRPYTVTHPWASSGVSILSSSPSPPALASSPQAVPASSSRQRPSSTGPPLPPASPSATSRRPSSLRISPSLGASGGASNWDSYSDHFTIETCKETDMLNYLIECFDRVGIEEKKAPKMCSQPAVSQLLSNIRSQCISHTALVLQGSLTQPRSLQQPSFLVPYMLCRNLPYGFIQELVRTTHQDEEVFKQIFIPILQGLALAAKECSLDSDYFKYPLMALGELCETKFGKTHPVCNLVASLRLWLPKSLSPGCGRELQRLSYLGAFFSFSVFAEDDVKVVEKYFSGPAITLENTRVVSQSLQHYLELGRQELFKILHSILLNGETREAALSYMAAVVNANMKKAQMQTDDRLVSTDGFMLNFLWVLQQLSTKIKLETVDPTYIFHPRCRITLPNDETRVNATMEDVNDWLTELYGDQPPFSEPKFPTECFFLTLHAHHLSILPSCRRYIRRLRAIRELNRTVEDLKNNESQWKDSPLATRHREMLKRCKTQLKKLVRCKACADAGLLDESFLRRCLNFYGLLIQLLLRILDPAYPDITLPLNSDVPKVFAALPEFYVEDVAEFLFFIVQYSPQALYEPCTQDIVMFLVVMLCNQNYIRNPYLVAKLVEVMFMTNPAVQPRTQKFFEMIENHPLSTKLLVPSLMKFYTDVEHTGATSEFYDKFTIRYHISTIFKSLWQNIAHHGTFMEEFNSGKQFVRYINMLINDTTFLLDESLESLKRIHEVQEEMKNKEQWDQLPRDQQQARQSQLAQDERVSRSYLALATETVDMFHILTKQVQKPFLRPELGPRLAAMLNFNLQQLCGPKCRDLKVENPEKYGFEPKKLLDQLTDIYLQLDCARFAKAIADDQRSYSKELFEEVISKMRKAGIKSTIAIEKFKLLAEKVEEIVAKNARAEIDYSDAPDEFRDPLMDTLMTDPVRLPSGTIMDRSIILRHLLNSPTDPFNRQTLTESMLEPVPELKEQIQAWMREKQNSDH

B1: Flag-UBXD6 (other, UniProt O00124 1-270, looked up)
chain: MASRGVVGIFFLSAVPLVCLELRRGIPDIGIKDFLLLCGRILLLLALLTLIISVTTSWLNSFKSPQVYLKEEEEKNEKRQKLVRKKQQEAQGEKASRYIENVLKPHQEMKLRKLEERFYQMTGEAWKLSSGHKLGGDEGTSQTSFETSNREAAKSQNLPKPLTEFPSPAEQPTCKEIPDLPEEPSQTAEEVVTVALRCPSGNVLRRRFLKSYSSQVLFDWMTRIGYHISLYSLSTSFPRRPLAVEGGQSLEDIGITVDTVLILEEKEQTN
notes: also called Rep-8/UBXD6; RDB 2145; not shown: N-terminal Flag tag
Q: For B1, which sequence count (endogenous p97) is on record?
A: 55

Q: What about the sequence coverage (endogenous p97) of the same binder?
A: 59.5%

Q: And the spectrum count (endogenous p97)?
A: 212

B2: Flag-UBXD1 (other, UniProt Q9BZV1 1-441, looked up)
chain: MKKFFQEFKADIKFKSAGPGQKLKESVGEKAHKEKPNQPAPRPPRQGPTNEAQMAAAAALARLEQKQSRAWGPTSQDTIRNQVRKELQAEATVSGSPEAPGTNVVSEPREEGSAHLAVPGVYFTCPLTGATLRKDQRDACIKEAILLHFSTDPVAASIMKIYTFNKDQDRVKLGVDTIAKYLDNIHLHPEEEKYRKIKLQNKVFQERINCLEGTHEFFEAIGFQKVLLPAQDQEDPEEFYVLSETTLAQPQSLERHKEQLLAAEPVRAKLDRQRRVFQPSPLASQFELPGDFFNLTAEEIKREQRLRSEAVERLSVLRTKAMREKEEQRGLRKYNYTLLRVRLPDGCLLQGTFYARERLGAVYGFVREALQSDWLPFELLASGGQKLSEDENLALNECGLVPSALLTFSWDMAVLEDIKAAGAEPDSILKPELLSAIEKLL
notes: also called RDB 2152; not shown: N-terminal Flag tag
Q: For B2, which sequence count (endogenous p97) is on record?
A: 159

Q: What about the sequence coverage (endogenous p97) of the same binder?
A: 84.3%

Q: What about the spectrum count (endogenous p97) of the same binder?
A: 1130

B3: Flag-UBXD2 (other, UniProt Q92575 1-508, looked up)
chain: MLWFQGAIPAAIATAKRSGAVFVVFVAGDDEQSTQMAASWEDDKVTEASSNSFVAIKIDTKSEACLQFSQIYPVVCVPSSFFIGDSGIPLEVIAGSVSADELVTRIHKVRQMHLLKSETSVANGSQSESSVSTPSASFEPNNTCENSQSRNAELCEIPPTSDTKSDTATGGESAGHATSSQEPSGCSDQRPAEDLNIRVERLTKKLEERREEKRKEEEQREIKKEIERRKTGKEMLDYKRKQEEELTKRMLEERNREKAEDRAARERIKQQIALDRAERAARFAKTKEEVEAAKAAALLAKQAEMEVKRESYARERSTVARIQFRLPDGSSFTNQFPSDAPLEEARQFAAQTVGNTYGNFSLATMFPRREFTKEDYKKKLLDLELAPSASVVLLPAGRPTASIVHSSSGDIWTLLGTVLYPFLAIWRLISNFLFSNPPPTQTSVRVTSSEPPNPASSSKSEKREPVRKRVLEKRGDDFKKEGKIYRLRTQDDGEDENNTWNGNSTQQM
notes: also called RDB 2153; not shown: N-terminal Flag tag
Q: Which results are given for B3?
A: sequence count (endogenous p97): 27; sequence coverage (endogenous p97): 41.1%; spectrum count (endogenous p97): 958

B4: Flag-UBXD3 (other, UniProt Q96LJ8 1-280, looked up)
chain: MATEAPVNIAPPECSTVVSTAVDSLIWQPNSLNMHMIRPKSAKGRTRPSLQKSQGVEVCAHHIPSPPPAIPYELPSSQKPGACAPKSPNQGASDEIPELQQQVPTGASSSLNKYPVLPSINRKNLEEEAVETVAKKASSLQLSSIRALYQDETGTMKTSEEDSRARACAVERKFIVRTKKQGSSRAGNLEEPSDQEPRLLLAVRSPTGQRFVRHFRPTDDLQTIVAVAEQKNKTSYRHCSIETMEVPRRRFSDLTKSLQECRIPHKSVLGISLEDGEGWP
notes: also called RDB 2149; not shown: N-terminal Flag tag
Q: B4 was tested. Which sequence count (endogenous p97) did it give?
A: 57

Q: And the sequence coverage (endogenous p97)?
A: 64.5%

Q: What about the spectrum count (endogenous p97) of the same binder?
A: 254

B5: Flag-ASPL (other, UniProt Q9BZE9 1-553, looked up)
chain: MAAPAGGGGSAVSVLAPNGRRHTVKVTPSTVLLQVLEDTCRRQDFNPCEYDLKFQRSVLDLSLQWRFANLPNNAKLEMVPASRSREGPENMVRIALQLDDGSRLQDSFCSGQTLWELLSHFPQIRECLQHPGGATPVCVYTRDEVTGEAALRGTTLQSLGLTGGSATIRFVMKCYDPVGKTPGSLGSSASAGQAAASAPLPLESGELSRGDLSRPEDADTSGPCCEHTQEKQSTRAPAAAPFVPFSGGGQRLGGPPGPTRPLTSSSAKLPKSLSSPGGPSKPKKSKSGQDPQQEQEQERERDPQQEQERERPVDREPVDREPVVCHPDLEERLQAWPAELPDEFFELTVDDVRRRLAQLKSERKRLEEAPLVTKAFREAQIKEKLERYPKVALRVLFPDRYVLQGFFRPSETVGDLRDFVRSHLGNPELSFYLFITPPKTVLDDHTQTLFQANLFPAALVHLGAEEPAGVYLEPGLLEHAISPSAADVLVARYMSRAAGSPSPLPAPDPAPKSEPAAEEGALVPPEPIPGTAQPVKRSLGKVPKWLKLPASKR
notes: also called RDB 2144; not shown: N-terminal Flag tag
Q: With B5 as the binder, how does the sequence count (endogenous p97) read?
A: 154

Q: What about the sequence coverage (endogenous p97) of the same binder?
A: 78.5%

Q: And the spectrum count (endogenous p97)?
A: 1440

B6: Flag-UBXD8 (other, UniProt Q96CS3 1-445, looked up)
chain: MAAPEERDLTQEQTEKLLQFQDLTGIESMDQCRHTLEQHNWNIEAAVQDRLNEQEGVPSVFNPPPSRPLQVNTADHRIYSYVVSRPQPRGLLGWGYYLIMLPFRFTYYTILDIFRFALRFIRPDPRSRVTDPVGDIVSFMHSFEEKYGRAHPVFYQGTYSQALNDAKRELRFLLVYLHGDDHQDSDEFCRNTLCAPEVISLINTRMLFWACSTNKPEGYRVSQALRENTYPFLAMIMLKDRRMTVVGRLEGLIQPDDLINQLTFIMDANQTYLVSERLEREERNQTQVLRQQQDEAYLASLRADQEKERKKREERERKRRKEEEVQQQKLAEERRRQNLQEEKERKLECLPPEPSPDDPESVKIIFKLPNDSRVERRFHFSQSLTVIHDFLFSLKESPEKFQIEANFPRRVLPCIPSEEWPNPPTLQEAGLSHTEVLFVQDLTDE
notes: also called RDB 2143; not shown: N-terminal Flag tag
Q: What does the source list for B6?
A: binding result [1]: no binding; sequence count (endogenous p97): 48; sequence coverage (endogenous p97): 57.6%; spectrum count (endogenous p97): 3090

B7: Flag-FAF1 (other, UniProt Q9UNN5 1-650, looked up)
chain: MASNMDREMILADFQACTGIENIDEAITLLEQNNWDLVAAINGVIPQENGILQSEYGGETIPGPAFNPASHPASAPTSSSSSAFRPVMPSRQIVERQPRMLDFRVEYRDRNVDVVLEDTCTVGEIKQILENELQIPVSKMLLKGWKTGDVEDSTVLKSLHLPKNNSLYVLTPDLPPPSSSSHAGALQESLNQNFMLIITHREVQREYNLNFSGSSTIQEVKRNVYDLTSIPVRHQLWEGWPTSATDDSMCLAESGLSYPCHRLTVGRRSSPAQTREQSEEQITDVHMVSDSDGDDFEDATEFGVDDGEVFGMASSALRKSPMMPENAENEGDALLQFTAEFSSRYGDCHPVFFIGSLEAAFQEAFYVKARDRKLLAIYLHHDESVLTNVFCSQMLCAESIVSYLSQNFITWAWDLTKDSNRARFLTMCNRHFGSVVAQTIRTQKTDQFPLFLIIMGKRSSNEVLNVIQGNTTVDELMMRLMAAMEIFTAQQQEDIKDEDEREARENVKREQDEAYRLSLEADRAKREAHEREMAEQFRLEQIRKEQEEEREAIRLSLEQALPPEPKEENAEPVSKLRIRTPSGEFLERRFLASNKLQIVFDFVASKGFPWDEYKLLSTFPRRDVTQLDPNKSLLEVKLFPQETLFLEAKE
notes: also called RDB 2151; not shown: N-terminal Flag tag
Q: Which results are given for B7?
A: binding result [1]: no binding; sequence count (endogenous p97): 84; sequence coverage (endogenous p97): 68.9%; spectrum count (endogenous p97): 539

B8: Flag-SAKS1 (other, UniProt Q04323 1-297, looked up)
chain: MAELTALESLIEMGFPRGRAEKALALTGNQGIEAAMDWLMEHEDDPDVDEPLETPLGHILGREPTSSEQGGLEGSGSAAGEGKPALSEEERQEQTKRMLELVAQKQREREEREEREALERERQRRRQGQELSAARQRLQEDEMRRAAEERRREKAEELAARQRVREKIERDKAERAKKYGGSVGSQPPPVAPEPGPVPSSPSQEPPTKREYDQCRIQVRLPDGTSLTQTFRAREQLAAVRLYVELHRGEELGGGQDPVQLLSGFPRRAFSEADMERPLQELGLVPSAVLIVAKKCPS
notes: also called RDB 2150; not shown: N-terminal Flag tag
Q: How did the sequence count (endogenous p97) turn out when B8 was run?
A: 68

Q: And the sequence coverage (endogenous p97)?
A: 57.4%

Q: And the spectrum count (endogenous p97)?
A: 663
